Test results published in PMC9067469.

What was measured:
Test in all cases: SPR
[1] = biological target: V3-pI(A)-N434A (human IgG1 Fc variant G236N/H268D/Q311R/A330K/D413K/N434A of the pH-dependent anti-l (human))
[2] = biological target: IgG1 (pH-dependent anti-latent myostatin antibody with wild-type human IgG1 constant region) (human)
[3] = biological target: V3-N434A (human IgG1 Fc variant G236N/H268D/A330K/N434A of the pH-dependent anti-latent myostatin antibody) (human)
[4] = biological target: V2 (human IgG1 Fc variant G236N/H268D of an anti-latent myostatin antibody) (human)
[5] = biological target: V3 (human IgG1 Fc variant G236N/H268D/A330K of the pH-dependent anti-latent myostatin antibody) (human)
[6] = biological target: V1 (human IgG1 Fc variant G236N of an anti-latent myostatin antibody) (human)

Substance	relative binding per units (IgG1 = 1) (relative to IgG1) [2]	relative binding per units (IgG1 = 1) (relative to IgG1) [1]	further results
cynomolgus FcRn (from UniProt Q8SPV9 24-365) (receptor)			Kd [1]: 355 nM; Kd [2]: 1520 nM; Kd [3]: 526 nM
cynomolgus FcγRIIIa(R), extracellular region (from UniProt Q8SPW2 17-208) (receptor)	1		
cynomolgus FcγRIIIa(S), extracellular region (from UniProt Q8SPW2 17-208) (receptor)	1		
cynomolgus FcγRIIa1, extracellular region (receptor)	1	1.97	relative binding per units (IgG1 = 1) (relative to IgG1) [4]: 1.45; relative binding per units (IgG1 = 1) (relative to IgG1) [5]: 2
cynomolgus FcγRIIa2, extracellular region (receptor)	1	2.52	relative binding per units (IgG1 = 1) (relative to IgG1) [4]: 1.89; relative binding per units (IgG1 = 1) (relative to IgG1) [5]: 2.56
cynomolgus FcγRIIa3, extracellular region (receptor)	1	2.76	relative binding per units (IgG1 = 1) (relative to IgG1) [4]: 2.36; relative binding per units (IgG1 = 1) (relative to IgG1) [5]: 2.77
cynomolgus FcγRIIb, extracellular region (receptor)	1	2.83	
cynomolgus FcγRIa, extracellular region (receptor)	1	0.71	
human FcγRIIIa(F), extracellular region (from UniProt P08637 17-208) (receptor)	1		
human FcγRIIIa(V), extracellular region (from UniProt P08637 17-208) (receptor)	1		
human FcγRIa, extracellular region (from UniProt P12314 16-292) (receptor)			relative binding per units (IgG1 = 1) (relative to IgG1) [6]: 0.16
